The values below are quoted from earlier work in publication PMC9304195.

pKd: −log10 of the molar value.

In this data set the target is UGGT (Homo sapiens) (UniProt Q9NYU2).
Chain of UGGT (Homo sapiens) (Q9NYU2 43-1555): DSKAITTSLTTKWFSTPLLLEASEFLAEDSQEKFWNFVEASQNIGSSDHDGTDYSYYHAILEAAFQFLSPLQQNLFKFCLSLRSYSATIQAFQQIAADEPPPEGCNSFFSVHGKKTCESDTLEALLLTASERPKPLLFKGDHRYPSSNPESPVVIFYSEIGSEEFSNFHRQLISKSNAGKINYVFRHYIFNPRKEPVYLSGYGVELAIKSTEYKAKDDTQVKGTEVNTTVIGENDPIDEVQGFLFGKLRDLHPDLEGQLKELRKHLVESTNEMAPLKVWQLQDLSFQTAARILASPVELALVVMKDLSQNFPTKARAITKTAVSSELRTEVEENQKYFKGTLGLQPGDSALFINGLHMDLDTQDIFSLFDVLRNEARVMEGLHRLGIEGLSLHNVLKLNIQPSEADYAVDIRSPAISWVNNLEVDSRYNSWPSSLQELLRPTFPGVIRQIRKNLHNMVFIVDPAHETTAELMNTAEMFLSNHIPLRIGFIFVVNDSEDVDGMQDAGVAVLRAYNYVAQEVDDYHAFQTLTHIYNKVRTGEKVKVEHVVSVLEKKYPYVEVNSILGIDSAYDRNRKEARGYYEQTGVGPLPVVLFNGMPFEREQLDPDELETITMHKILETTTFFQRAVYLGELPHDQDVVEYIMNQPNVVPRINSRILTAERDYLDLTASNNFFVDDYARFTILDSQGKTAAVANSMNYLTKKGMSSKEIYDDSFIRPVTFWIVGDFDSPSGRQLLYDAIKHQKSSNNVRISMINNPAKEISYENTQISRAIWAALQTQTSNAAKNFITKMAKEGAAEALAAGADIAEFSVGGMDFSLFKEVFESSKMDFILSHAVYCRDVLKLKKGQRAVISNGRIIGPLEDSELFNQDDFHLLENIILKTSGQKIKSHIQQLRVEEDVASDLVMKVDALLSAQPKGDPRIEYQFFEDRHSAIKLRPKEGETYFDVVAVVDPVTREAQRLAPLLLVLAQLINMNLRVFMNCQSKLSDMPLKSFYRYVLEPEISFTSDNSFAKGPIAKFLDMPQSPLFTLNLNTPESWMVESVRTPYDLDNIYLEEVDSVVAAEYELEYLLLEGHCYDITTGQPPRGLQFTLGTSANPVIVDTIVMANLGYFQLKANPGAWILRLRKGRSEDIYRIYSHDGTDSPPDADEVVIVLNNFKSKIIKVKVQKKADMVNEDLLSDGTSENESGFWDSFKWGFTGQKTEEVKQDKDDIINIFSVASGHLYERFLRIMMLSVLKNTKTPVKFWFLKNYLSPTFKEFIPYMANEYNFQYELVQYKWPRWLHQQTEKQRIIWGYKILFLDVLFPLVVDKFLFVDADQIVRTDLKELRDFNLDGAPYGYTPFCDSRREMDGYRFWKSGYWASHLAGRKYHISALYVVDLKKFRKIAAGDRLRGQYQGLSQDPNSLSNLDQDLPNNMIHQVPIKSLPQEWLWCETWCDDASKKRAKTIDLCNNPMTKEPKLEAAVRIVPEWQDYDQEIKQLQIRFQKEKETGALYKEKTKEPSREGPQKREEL

Chain of SELENOF (O60613 32-165): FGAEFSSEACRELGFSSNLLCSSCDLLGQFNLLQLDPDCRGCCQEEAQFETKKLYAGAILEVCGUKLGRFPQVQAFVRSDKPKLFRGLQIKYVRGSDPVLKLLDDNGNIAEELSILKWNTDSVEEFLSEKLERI

As a reminder, the pKd is the negative decadic logarithm of the Kd, by convention in mol/L. SELENOF (from UniProt O60613): the pKd is 7.70.
